Assays:
[1] = molecular target: T1, Endonuclease V (EcEndoV), wild-type (Escherichia coli, UniProt P68739 1-223); assay: NMR imino line broadening; 5 mM Mg2+, 150 mM NaCl, 288 K, 1:1; backbone interaction, non-specific; EMSA: 25 mM sodium phosphate pH 6.5, 50-300 mM NaCl (500 mM in Fig. S17E), 1 mM DTT, 5 mM MgCl2, 30 min on ice, 2 pmol RNA in 10 ul, 12% native gel in TBE at room temperature; NMR: 25 mM sodium phosphate pH 6.5, 150 mM NaCl, 5 mM MgCl2, 1 mM DTT, 5% D2O, 50 uM RNA, 288 K; conditions: protein: recombinant; tags: N-terminal His-tag removed with TEV protease; 20-mer duplex, residues 1-40
T1 sequence: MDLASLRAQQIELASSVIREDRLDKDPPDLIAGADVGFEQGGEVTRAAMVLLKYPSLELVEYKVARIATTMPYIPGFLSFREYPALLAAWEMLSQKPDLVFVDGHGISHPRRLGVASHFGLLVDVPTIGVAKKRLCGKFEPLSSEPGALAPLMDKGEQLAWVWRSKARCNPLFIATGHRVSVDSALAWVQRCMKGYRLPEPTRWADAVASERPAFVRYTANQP

[2] = molecular target: T1, Endonuclease V (EcEndoV), wild-type; assay: EMSA; EMSA: 25 mM sodium phosphate pH 6.5, 50-300 mM NaCl (500 mM in Fig. S17E), 1 mM DTT, 5 mM MgCl2, 30 min on ice, 2 pmol RNA in 10 ul, 12% native gel in TBE at room temperature; NMR: 25 mM sodium phosphate pH 6.5, 150 mM NaCl, 5 mM MgCl2, 1 mM DTT, 5% D2O, 50 uM RNA, 288 K; conditions: protein: recombinant; tags: N-terminal His-tag removed with TEV protease; single strand

B1: A-RNA (non-edited 20-mer dsRNA) (dsRNA)
RNA 1: ACUGGACAAAUACUCCGAGG
RNA 2: CCUCGGAGUAUUUGUCCAGU
B1: binds [1].

CCUCGGAGUAUUUGUCCAGU (ssRNA) [ssRNA substrate(s) without inosine]: no binding [2].

— paper PMC12199146, “Unique conformational dynamics and protein recognition of A-to-I hyper-edited dsRNA”
